Experimental data as given in IntAct's records for PubMed 12799422.

B1: Tyrosine-protein phosphatase non-receptor type 1 (Gallus gallus (Chicken)), O13016 (parent)
chain: MEIEKEFHRLDQAASWAAIYQDIRHEASDFPCKVAKHPRNKNRNRYRDVSPFDHSRIKLNQGDNDYINASLIKMEEAQRSYILTQGPLPNTCGHFWEMVWEQKSRGVVMLNRVMEKGSIKCAQYWPRKEEKEMFFEDTNLKLTLISEDIKSYYTVRQLELENLTTQETREILHFHYTTWPDFGVPESPASFLNFLFKVRESGSLNPEYGPVVVHCSAGIGRSGTFCLVDTCLLLMDKRKDPSSVDVKQVLLEMRKYRMGLIQTADQLRFSYLAVIEGAKFIMGDASVQEQWKELSNEDLDPPPEHTPPPPRPPKRTSEMHNGRMHEHAEFFPKHQVVEEEIRCSVSTAEETVSDGRVFSSVPLITDSTSQDTEIRRRTVGENLHVTAHKEESKSESVEEDDENMMTTWKPFLVNICMFTFLTAGAYLCYRVCFH
B2: Adapter molecule crk (Homo sapiens), P46108 (parent)
chain: MAGNFDSEERSSWYWGRLSRQEAVALLQGQRHGVFLVRDSSTSPGDYVLSVSENSRVSHYIINSSGPRPPVPPSPAQPPPGVSPSRLRIGDQEFDSLPALLEFYKIHYLDTTTLIEPVSRSRQGSGVILRQEEAEYVRALFDFNGNDEEDLPFKKGDILRIRDKPEEQWWNAEDSEGKRGMIPVPYVEKYRPASASVSALIGGNQEGSHPQPLGGPEPGPYAQPSVNTPLPNLQNGPIYARVIQKRVPNAYDKTALALEVGELVKVTKINVSGQWEGECNGKRGHFPFTHVRLLDQQNPDEDFS
partner: B1 chain
B3: Adapter molecule crk (Homo sapiens), P46108 (parent)
chain: B2 chain
partner: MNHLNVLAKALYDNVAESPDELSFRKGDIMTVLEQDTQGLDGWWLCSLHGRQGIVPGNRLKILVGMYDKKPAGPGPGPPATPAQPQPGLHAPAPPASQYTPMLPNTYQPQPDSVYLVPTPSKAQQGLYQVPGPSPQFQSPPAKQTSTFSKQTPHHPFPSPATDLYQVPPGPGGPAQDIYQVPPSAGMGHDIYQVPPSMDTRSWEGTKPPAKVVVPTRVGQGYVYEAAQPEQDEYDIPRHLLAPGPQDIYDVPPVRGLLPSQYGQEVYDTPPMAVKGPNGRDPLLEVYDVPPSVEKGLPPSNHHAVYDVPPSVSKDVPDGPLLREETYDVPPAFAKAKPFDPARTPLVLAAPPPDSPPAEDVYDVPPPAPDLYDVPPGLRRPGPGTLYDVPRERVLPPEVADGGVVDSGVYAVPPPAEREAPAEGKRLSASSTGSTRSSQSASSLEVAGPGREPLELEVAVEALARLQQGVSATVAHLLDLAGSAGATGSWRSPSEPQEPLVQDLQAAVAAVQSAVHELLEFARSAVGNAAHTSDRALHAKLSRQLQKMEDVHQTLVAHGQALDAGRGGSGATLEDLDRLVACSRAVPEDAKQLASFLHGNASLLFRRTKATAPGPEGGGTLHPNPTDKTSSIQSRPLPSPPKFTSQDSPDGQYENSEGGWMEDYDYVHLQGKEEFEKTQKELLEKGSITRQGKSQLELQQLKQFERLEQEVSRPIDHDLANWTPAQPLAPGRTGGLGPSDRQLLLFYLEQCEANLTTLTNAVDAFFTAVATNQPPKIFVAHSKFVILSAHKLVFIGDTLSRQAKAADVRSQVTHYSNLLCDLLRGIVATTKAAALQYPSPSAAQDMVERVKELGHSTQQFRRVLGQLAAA
B4: Adapter molecule crk (Homo sapiens), P46108 (parent)
chain: B2 chain

Variants of: B1
Details: with crk_human CRK, P46108

effect of a mutation on the interaction	Variant
disrupting interaction	C215S

Variants of: B2
Details: with ptn1_chick PTPN1, O13016

effect of a mutation on the interaction	Variant
decreasing interaction	Y221F

Variants of: B3
Details: with bcar1_human BCAR1, P56945

effect of a mutation on the interaction	Variant
increasing interaction	Y221F

Variants of: B4
Details: with paxi_human PXN

effect of a mutation on the interaction	Variant
increasing interaction	Y221F
